Source: the DeepSol protein solubility set

Assay: soluble on expression in E. coli; label from the status in PepcDB or PDB records

| Sequence | soluble on expression in E. coli |
| --- | --- |
| MGHHHHHHGGHMSLRTEEEMFQLIMDVAKQEEHIRAVGMVGSRTNVKAPKDSFQDFDIVYIVEPCAEFFETATWIAKFGQPLIMQRPKEMTLFPTEPKTRETFLMLFEDGQRIDLTLCPLAEKDNWHEGDSLAIILLDKDENLPPLPVASDKNYTVTVPDQQQFNDCCNEFWWVSTYVVKGLCRNELFYAVTHLYEYCQQELLRLLSWQAAWQEPEPISVGKQFKYLKNYVTPDTMDQLASLLDFSSKEACWNSLIKTQAFFDVVAQDFAKMAQFTYHLQEAKKVTEYTNSLRLKDLQGKEGGS | not soluble |
| MKNSNFPAEVKDLTKRIRTVLMATAQMKEHEKDPEMLVDLQYSLANSYASTPELRRTWLESMAKIHARNGDLSEAAMCYIHIAALIAEYLKRKGYWKVEKICTASLLSEDTHPCDSNSLLTTPSGGSMFSMGWPAFLSITPNIKEEGAMKEDSGMQDTPYNENILVEQLYMCVEFLWKSERYELIADVNKPIIAVFEKQRDFKKLSDLYYDIHRSYLKVAEVVNSEKRLFGRYYRVAFYGQGFFEEEEGKEYIYKEPKLTGLSEISQRLLKLYADKFGADNVKIIQDSNKVNPKDLDPKYAYIQVTYVTPFFEEKEIEDRKTDFEMHHNINRFVFETPFTLSGKKHGGVAEQCKRRTILTTSHLFPYVKKRIQVISQSSTELNPIEVAIDEMSKKVSELNQLCTMEEVDMIRLQLKLQGSVSVKVNAGPMAYARAFLEETNAKKYPDNQVKLLKEIFRQFADACGQALDVNERLIKEDQLEYQEELRSHYKDMLSELSTVMNEQITGRDDLSKRGVDQTCTRVISKATPALPTVSISSSAEV | not soluble |
| MGSDKIHHHHHHLKNELAVIDIGSNSIRYVIFHPIDSGRYIEKINVKVVARLSAHIDAEGALDSVGIRLLCETLQRFHEIGITHHVEETICVATAAIRNASNRQDIVHAVEQETPFTMRVLSDEQEAYYGYFAIINSTFLTDGYSVDIGGGSMEVTLIENREMIAYHSFPFGAVTLTRQFLSGETMTSGEQKKLIKFLREQFDEIPWLKNKKLPLIGVGGSARNFVRIHQSTLDYPLHGIHQYQVRSKELGKLIDELEDKAPKQLMKVEGLSKDRVDIFLPALIAIHELALHIEAEQFVMSNYGLREGLVYEYDLHEQEQRRIENVREESLYQLESDYKVNRDRMNYLGTIAKSIYRQLVTLDIIPNRAADLRLLDSASRLLYCGQYINPDTRSNQTFYLLTNTDLKGMTHKDRLALALVSSYSSSKRIQQLLKPFKDWFTDKSIERFDLLGSILKLTEALDVTERRAVDSLEIALEKDKKDLRIILDTGDHDYGFEVEKAEKQKKHLERIIDRSIQFDNKGGGLT | not soluble |
| MGSDKIHHHHHHMTFEQLLYAVELANHQTLQETADLLHISKSGLSQSISQLENELGVKLFKRTRYGSKLTAQGKELLPLIKQMLSQGVSLTKKAHNLGKSGQIETVRVAYANTMLKPFLNEYLAMYQDVPTKFNMEISQETVTQIIDGIRSHRINLGFIAINDSNKAEIHGLEFKPVHVGHLKLFLSPDNQLVKKQKINIEDLQKQRFALFNDPYNDRIFEHLQYLCGPLKTVIKTDDGWAMYTTIKKANAVALVRDWQTSYSSYEPLQKLPSLDISNLIDDRFYLGWLTNPKYTTSRYTHRYTQEFIKHVDAQIKEC | not soluble |
| MAHHHHHHMRPVIVMLLHEEQDTGAYMIKYLVTRGMDFVMFRCWEERVASLVPKAAGETIRCLPVANKPHHYVPCLVNSTAAPSTESESLVTTSTSLAPVSSNVAEDCRIRAVASFGGSMSVNDELSYFESIRSLMRSCLEKRIPVIGHCLGGQLLSSALGGRIVLSENIEVGWYEMVVEEAEDVKDWFGGRKRFDAFHIHTDSFTIPQGARRIVTGAYCANQAFQVGDQFALGMQFHPEVDEDKVRSLISSQFPTLYTEEELADILRKGAEGAKTPDGRPLVSPGSMTRECIEKCLREGRIEQNRPIADSIYDTWCSGFLF | not soluble |
| MGSDKIHHHHHHMDFQEKIEELRKIIKDNIEPLITSDYVHLDNPYHGNIGDILIWEGERQFLSSIKYKCLQSSSNSWCENYLHPETVILFNGGGNFGDLYRECQDFRLRVIEQFPNNRIIMFPQSIWYEDESLIAKDAAVMARHNDLTLCARDKWSYNFLKEHFGKNKILLVPDMAFYISDEYLNKYRECVFWGQKLYLRRIDKEMDFSTILDDLRGFDIRDWPSLERRPICLLILRIMKRAAYYLQKITCLTVLQRFVNRLADEYAIRIVRPYLLKRGCDFISPYSEVITTRLHGLILSILFHKPVYYINNTTGKLSAYVDTWHLQDILEVSPYVDKILEKHVD | not soluble |
| MSDTQQVPAIVILGQGALDTARRVQARYPGALVHGLAGRVEADRSYTDFGDTLRELYCADRPIVALCAAGIVIRSLAPLLQRKGAEPPVLALAEDGSAVVPLLGGLAGVNRLAREIGEVLAVAPAITTSGELRFGTCVLNPPAGYVLADLEQGKRFVADLLGGQPVRVEGAADWLDAARLPRDPEAALAIHVTPSARAPRAEELLIHPRCVLAALEPADAAADAVRQALVDAGLAAAALGGLLADSARMADPRLQAAADALGVPLRFLPQADPAARLRQALPAAEQVGDRLAVAAAPLAMDRIGQRRGRLTVIGLGPGCAELMVPAARRALDEAEDILGYQTYVDMAGPFRAGQVLHGSDNREELQRARHAFELAATGRAVVLVSSGDPGVFAMAAAVLEALHGAGEPAWDAVELRIFPGVSAALATAARAGAPLGHDFCVLSLSDNLKPWEVIERRLDLAGAADLAMAFYNPISRARPWQLGRALEIVARHRSPQTLVVLGRDIGRPGERLLRTTLGELRAEQVDMRTLVIIGSSTTRSFPRADGEAWVYTPRWYPSE | not soluble |
| AMSKIICLTAGHSNTDPGAVNGSDREADLAQDMRNIVASILRNDYGLTVKTDGTGKGNMPLRDAVKLIRGSDVAIEFHTNAAANKTATGIEALSTPKNKRWCQVLGKAVAKKTGWKLRGEDGFKPDNAGQHSRLAYAQAGGIVFEPFFISNDTDLALFKTTKWGICRAIADAIAMELGAAKV | soluble |
| MEITDPGDFRQRIETSFARQGVVQAINAEISRIEHRLVEIELPFHEKLTQQHGILHAGVIAAGLDTACTYAAYTIIEPEASLLTIEFKVNLMSPGRGERFLFRGEIIKPGNNLIVADGRAYALSDGPAKLIASMTGTMMVVKGREDITGLEHHHHHH | soluble |
| MEAYLKKLCFEYQVEEKEVKELLARMERVYLDKGETIASATMPEQSLYIIVSGILHTFTTQQGEDKTVRFLSEGDAILCYNTSKHSVKTLTRCVAYYISEDEIEELCATSITFSNLIRQMMEYQFYLKEEMSVNARKLTIRERYLSLLSEIPDILYRVPLKYITYYLGADVTSLGYLAGSCK | not soluble |
| MDSVCPQGKYIHPQNNSICCTKCHKGTYLYNDCPGPGQDTDCRECESGSFTASENHLRHCLSCSKCRKEMGQVEISSCTVDRDTVCGCRKNQYRHYWSENLFQCFNCSLCLNGTVHLSCQEKQNTVCTCHAGFFLRENECVSCSNCKKSLECTKLCLPQIEN | soluble |
| MEWIERLNKAMSYIEEHITEEIDFEQTAKIACCSAYHFQRMFTYMAGIPLSEYIRRRRMTLAAVELQSSDEKVIDIALKYGYASPTAFNRAFQSVQGITPSAAKKKGTPVKSYPPLSFAITIKGVEGMNYRIEEKEAFRIIGIAQSMSKNLEENFAVVPQMWGKAAADGTIQKLASMIEGQPAGLLGVSICNNEEDWRYFIAVSGTRPAEAPFEEYRVPASTWAVFPGTGTNLSVQDLERRIVTEWLPTSGYEYGSAPDIEVYISPNPENAKYEVWIPVVKKQ | not soluble |
| MKFVNFDEYKQLVDYFRNRLNPNYSSPTMLFIISITGMRASEAFGLVWDDIDFNNNTIKCRRTWNYRNKVGGFKKPKTDAGIRDIVIDDESMQLLKDFREQQKTLFESLGIKPIHDFVCYHPYRKIITLSALQNTLDHALKKLNISTPLTVHGLRHTHASVLLYHGVDIMTVSKRLGHASVAITQQTYIHIIKELENKDKDKIIELLMELLEHHHHHH | soluble |
| GMHTDVNALFAALWQDYIKMTPSAAKIHQLLGHGAPIINDHIALRTFNIAKVNLSVLAKHFTSIGYVDSGDYKFEQKKLIAKHFEHPDPKQPKVFISELLVEEFSPEVQKSIHGLIDQVDIAATTADNFIYSGRHWDVDKATYQALLAESEYAAWVAALGYRANHFTVSINDLPEFERIEDVNQALKQAGFVLNSSGGEVKGSPEVLLEQSSTMADKVVVNFTDGDVEIPSCFYEFARRYPMANGQLYTGFVAASADKIFESTNAMM | soluble |
| MSTPPAAPLRIALVGDHDPHITAHRAIPLALRLAGEALGLEIAFDWLASDRLPAEPALERYDGFWCVPGSPYRDADAVLRLIAHARGRRRPFLGTCAGFQHTILEFARNALGWQAATHGEEHPHSDQAVIAALPCALLEAREDVRLLRGSRLALAYAADWIEADYHCRYAIAPRFAAELTGGALRASAWSADGAIRAVELEQHPFFVATLFQPERAALAGVLPPLPKAFVEACRTQRRDHPRRGPTPYYAVIFSSHRSAVDDGYAEAAERMLELASRQPGYLGVESVRGANGFGITVSYWDSEAAIRAWSRHAEHRDAQARGRHDWYAGFSARIARVEREYAFPAQPDTAQSPASS | not soluble |
| MDAKVAFSPHSDANGRLDEIGADIDTAQSSVLFSLAFLGQMTRGAIGPALGRALERPEVHVMGIADAEVRAGNLGLNVLTPDNRRRVVRAAALTGNVPPPFLTEPSGLAGVDGNQRGTRMHHKFVVLDFDKPTARVYLGSYNFSNPADDENGENLVVVRDRTVATSYMIEALRMYDHYVFRVASEASDGPARPLEHHHHHH | not soluble |
| MQNHVISLASAAERRAHIAATFGSRGIPFQFFDALMPSERLEQAMAELVPGLSAHPYLSGVEKACFMSHAVLWKQALDEGLPYIAVFEDDVLLGKDAEKFLAEDTWLEERFDKDSAFIVRLETMFAKVIVRPDKVLNYENRSFPLLESEHCGTAGYIISREAMRFFLDRFAVLPPERIKAVDLMMFTYFFDKEGMPVYQVSPALCTQELHYAKFLSQNSMLGSDLEKDREQGRRHRRSLKVMFDLKRALGKFGREKKKRMERQRQAELEKVYGRRVILFKLEHHHHHH | soluble |
| MINNVLVWKQPNISWIHPINIDNSINANNFNFDYLDTLNKLRSSNLKILELRDIADKISDGPFGSQLKVEEYKEQGFPVYRVKNIIDTQILDDDIVYIDAKKQQQLKRSEVLPGDVLITKAGRIGSAAVVPSKFGNGNITSHLVLVRLKKTINNYYLVAYLECKYGKVITGRESYKSTRPELTKNEIGNVIIPIPSPEIQKYIGDKVRKAEELREEAKRLKKEAETFLYEMIQLKPLNDFDKDMFSFVNSNYIDSERLDSEYYKTKYITLEKLLKSKKVTSFKDIIIESKYGASVPADYTMVGIPFIRGNNLTDNEINIDDIVYLNKKLKDEVKDHHVNTGDILITRSGTVGISAVVDEKCDGFSFGSFMIKLRIDMRIWNPYYIAAFLNSFWGKWQIERLQNGAVQQNINLQEIGRIIIPIISKENQDKIEELIKNYINKKRQSKQLIQEAKQDVEDLIEGNFDMSKVKANS | soluble |
| MGSDKIHHHHHHMSTQYWEEEIEIMSREKLQELQLQRLKKTINIAANSPYYKEVFSKNGITGDSIQSLDDIRKIPFTTKSDMRANYPFGLVAGDMKRDGVRIHSSSGTTGNPTVIVHSQHDLDSWANLVARCLYMVGIRKTDVFQNSSGYGMFTGGLGFQYGAERLGCLTVPAAAGNSKRQIKFISDFKTTALHAIPSYAIRLAEVFQEEGIDPRETTLKTLVIGAEPHTDEQRRKIERMLNVKAYNSFGMTEMNGPGVAFECQEQNGMHFWEDCYLVEIIDPETGEPVPEGEIGELVLTTLDREMMPLIRYRTRDLTRILPGKCPCGRTHLRIDRIKGRSDDMFIIKGVNIFPMQVEKILVQFPELGSNYLITLETVNNQDEMIVEVELSDLSTDNYIELEKIRRDIIRQLKDEILVTPKVKLVKKGSLPQSEGKAVRVKDLRDNK | not soluble |
